Experimental findings from article PMC2685181 (The Journal of neuroscience : the official journal of the …, 2008) are described below.

Where no end group is shown, it is not given here.

This experiment concerns the target WT β1b_core (core region of Ca2+ channel β1b subunit, G58-T418) (human, UniProt Q02641-1 58-418). Kind of experiment: pull-down.

WT β1b_core (core region of Ca2+ channel β1b subunit, G58-T418), sequence (Q02641 58-418): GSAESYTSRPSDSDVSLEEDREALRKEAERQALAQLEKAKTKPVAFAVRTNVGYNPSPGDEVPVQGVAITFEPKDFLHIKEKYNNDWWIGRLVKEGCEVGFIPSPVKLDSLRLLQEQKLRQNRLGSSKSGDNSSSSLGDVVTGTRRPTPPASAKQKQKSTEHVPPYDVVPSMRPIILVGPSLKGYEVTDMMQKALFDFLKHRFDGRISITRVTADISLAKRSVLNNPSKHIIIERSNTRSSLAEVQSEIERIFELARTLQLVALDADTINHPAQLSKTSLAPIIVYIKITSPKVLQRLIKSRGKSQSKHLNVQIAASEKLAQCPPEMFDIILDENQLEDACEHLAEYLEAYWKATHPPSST

For RVENRRAFAAAAALKLRRQQQIERELNGYMEWISKAEEVILAEDETDVEQ (domain or fragment, rabbit, UniProt P27884 369-413, looked up) [GST_I-II loop with five alanines inserted between F376 and L377], the binding result is “binds”.

B1: GST_I-II loop with seven alanines inserted between F376 and L377 (domain or fragment, rabbit, UniProt P27884 369-413, looked up)
chain: RVENRRAFAAAAAAALKLRRQQQIERELNGYMEWISKAEEVILAEDETDVEQ
B1: the binding result is given as “binds”.

As for RVENRRAFGGGGGLKLRRQQQIERELNGYMEWISKAEEVILAEDETDVEQ (domain or fragment, rabbit, UniProt P27884 369-413, looked up, not fully specified) [GST_I-II loop with five glycines inserted between F376 and L377], the binding result is on record as “binds”.

B2: GST_I-II loop with seven glycines inserted between F376 and L377 (domain or fragment, rabbit, UniProt P27884 369-413, looked up)
chain: RVENRRAFGGGGGGGLKLRRQQQIERELNGYMEWISKAEEVILAEDETDVEQ
modifications: not fully specified
B2: the binding result is listed as “binds”.
